Results: patent US20150284437A1 (Harvard, published 2015)
Values belong to the binder of their own block, whether it stands above or below them. Non-standard residues stand in square brackets, D forms with d. No end group written: not given here. βAla = NCCC(=O)O

Molecular target: T1, N-terminally GST-tagged human β-catenin (human, UniProt P35222 1-781, limits assumed)
T1 construct: not shown: N-terminal GST tag
T1 sequence (looked up): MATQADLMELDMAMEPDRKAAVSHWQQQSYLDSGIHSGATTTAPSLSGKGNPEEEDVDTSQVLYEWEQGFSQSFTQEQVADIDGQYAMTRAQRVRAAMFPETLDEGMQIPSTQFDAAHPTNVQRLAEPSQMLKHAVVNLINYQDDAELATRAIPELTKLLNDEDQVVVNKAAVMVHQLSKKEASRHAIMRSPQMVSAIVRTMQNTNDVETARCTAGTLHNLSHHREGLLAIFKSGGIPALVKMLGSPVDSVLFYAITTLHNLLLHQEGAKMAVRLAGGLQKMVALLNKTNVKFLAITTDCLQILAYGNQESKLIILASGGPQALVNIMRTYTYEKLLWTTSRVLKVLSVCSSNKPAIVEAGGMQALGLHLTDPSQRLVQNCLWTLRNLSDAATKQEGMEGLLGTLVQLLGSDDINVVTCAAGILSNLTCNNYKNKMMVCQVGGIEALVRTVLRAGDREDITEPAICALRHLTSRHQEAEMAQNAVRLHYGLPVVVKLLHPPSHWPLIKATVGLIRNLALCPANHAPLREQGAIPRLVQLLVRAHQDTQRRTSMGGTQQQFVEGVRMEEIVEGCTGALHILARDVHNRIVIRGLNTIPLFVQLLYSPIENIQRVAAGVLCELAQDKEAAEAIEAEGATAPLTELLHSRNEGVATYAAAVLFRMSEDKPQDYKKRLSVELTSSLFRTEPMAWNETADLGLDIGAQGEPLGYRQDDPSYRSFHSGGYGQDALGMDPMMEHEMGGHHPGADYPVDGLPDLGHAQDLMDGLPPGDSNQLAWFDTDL
Experiment: fluorescence polarization; FITC-labeled peptide, GST-tagged human β-catenin
Protocol: Peptide sequences derived from TCF4 and Axin were synthesized and fluorescently labeled (FIG. 4b) and the affinity of both binding domains to β-catenin was assessed. The sequence of TCF4 was modified in such a way that the loop (9 amino acids; not visible in the crystal structure) between the extended region and the α-helix was replaced by two β-alanines (βAla). Labeled peptides and GST-tagged human β-catenin were used in a fluorescence polarization assay enabling the determination of the stability of these peptide/β-catenin complexes (FIG. 4c). […] Therefore, the Axin derivative was considered to be the most promising candidate for the hydrocarbon stapling approach.

Kd: ~5 µM
B1: Axin wild type sequence peptide ax-WT, fluorescently labeled (peptide)
peptide: ENPESILDEHVQRVM
modifications: also: FITC label, site not given here
notes: also called axin-WT; Axin derived peptide

Kd: 0.3 µM
B2: TCF4 derived peptide, fluorescently labeled (peptide, UniProt Q9NQB0 10-53, looked up)
peptide: DELISFKDEGEQE[βAla][βAla]ERDLADVKSSLVN
modifications: also: FITC label, place not given here
notes: A synthetic fragment, not the whole protein
